Consider eight molecules from paper PMC10863849, “A kinesin-13 family kinesin in Trypanosoma brucei regulates cytokinesis and cytoskeleton morphogenesis by promoting microtubule bundling” (PLOS Pathogens, 2024).

What is called stoichiometry N is the number of molecules, sites or subunits per partner or assembly.

What all share (experiment): native gel or EMSA; blue native gel electrophoresis (NativePAGE Novex 3-12% Bis-Tris), 225 ng purified recombinant protein in BRB80-DTT buffer plus 5% glycerol, silver-stained; oligomer size read from band mobility
For orientation: In EMSA bound probe runs differently from free probe, usually more slowly.

One data set addresses GST.
For data set [1], the target named is GST-fused TbSpef1 (full-length TbSpef1 with N-terminal GST) (T. brucei).
Data set [2] addresses KIN13-5 CC-deletion mutant (a.a. 1-642), hexahistidine-tagged (T. brucei).
The target in data set [3] is KIN13-5 SAM domain-deletion mutant (a.a. 71-719), hexahistidine-tagged (T. brucei).
The target in data set [4] is motor domain of KIN13-5 (a.a. 170-536), hexahistidine-tagged (T. brucei).
Data set [5] concerns the target recombinant hexahistidine-tagged KIN13-1 (T. brucei).
Data set [6] deals with recombinant hexahistidine-tagged full-length KIN13-5 (a.a. 1-719) (T. brucei).
Data set [7] concerns the molecule itself.

In the case of GST (natural protein), the stoichiometry N with GST was found to be 2. For “GST-fused TbSpef1 (full-length TbSpef1 with N-terminal GST) (natural protein)”, the stoichiometry N in data set [1] stood at 4. “KIN13-5 CC-deletion mutant (a.a. 1-642), hexahistidine-tagged (domain or fragment)”: the stoichiometry N in data set [2] was determined as 2.

In the case of “KIN13-5 SAM domain-deletion mutant (a.a. 71-719), hexahistidine-tagged (domain or fragment)”, the stoichiometry N in data set [3] was determined as 4. “motor domain of KIN13-5 (a.a. 170-536), hexahistidine-tagged (domain or fragment)”: the stoichiometry N in data set [4] is 4. For “recombinant hexahistidine-tagged KIN13-1 (natural protein)”, the stoichiometry N in data set [5] came out at 2. Consider “recombinant hexahistidine-tagged full-length KIN13-5 (a.a. 1-719) (natural protein)”, for which the stoichiometry N in data set [6] turned out to be 8.

B1: recombinant hexahistidine-tagged KIN-G (natural protein)
chain: MAKPLSGKAAPKNISVFLRVRPPVPRELKGGTFNNLVCDPSDPQRVTITRGGSARKGTKSFLFNRVFDPECTQQTIYNEVARGAVDAAFDGQHGVLFVYGQTGSGKTFTISNNDPEKPGVLQQSLRDIWDRFQADTEYDYSCTVSYVQLYNEMLTDLLDPQGGRVRIQLGPEGRGDVVLVTEASGASIERKVESYEDCLKYFYEGMDRKEMTSTKMNNTSSRSHTVFNFNLTRSAKVKTVDLSSAKANNEPVIALQGRLVVCDLAGSERASRTNAEGKTLDEATHINGSLLVLGKVVAALTESGSQHAPFRESKLTRILQYSLLGNGNTSIVVNCSPCDDSTEETLGAIMFGQRAIQIKQDAKRHEILDYKALYYQLLADLDSKNDRTLETALSEERTAYEDRIRVLEERIKILTSENDMLRRESSQLGGTGPVSGTSTASGAAAAAVAMGGDDANDWRSLTMKMRRAIEKLDADLKRTDKERVELAQFLALEKNKVNVLAQKLRAESLKHIMENKELTQRVTELSIDNAKLKGTDYISFQPSAACEDALPLSLDSPRRGTPSSGLSQSINVGDAYLQEQLDKANRQLRVLNEERVELIVYQMMASKAIRLLHAEKTSLANHLEKLKA
For the molecule B1, the “stoichiometry N” value in data set [7] is about 4.
